In test [1] the target is T1, human CD147 antigen (human, UniProt P35613-2 22-205, limits assumed).
T1 sequence (looked up): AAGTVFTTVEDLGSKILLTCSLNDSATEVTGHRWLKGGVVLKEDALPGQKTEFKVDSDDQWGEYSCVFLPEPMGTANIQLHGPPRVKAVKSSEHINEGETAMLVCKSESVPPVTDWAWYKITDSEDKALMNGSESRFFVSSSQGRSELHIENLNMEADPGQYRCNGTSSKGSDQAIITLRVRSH
The test is described as follows: SPR (ProteOn XPR36), antibody immobilised on a GLC chip, human CD147 antigen injected at 0.375-6 nM, 25 C. As for the experimental part: (§1) The affinity (KD) for the binding of human CD147 antigen to selected antibodies was measured by Surface plasmon resonance analysis on a multi-SPR array system (ProteOn XPR36™, Bio-Rad). Data analysis was performed using ProteOn Manager Software (Bio-Rad). Briefly, the running buffer PBST (0.005% Tween-20 in PBS) was used continuously throughout the entire experiment at 25° C. A ProteOn GLC sensor chips (Bio-Rad) was activated for 6 min using a mixture of 0.2M EDC and 5 mM sulfo-NHS at a flow rate of 20 μl/min, followed by diluting 260 μl of 10 μg/mL each antibody in 10 mM acetate buffer at pH 4.5. The surface of the sensor chip was then deactivated with 150 μl of IM Ethanolamine Hydrochloride (pH 8.5). The sensor surface was regenerated through a wash (about 3 min) with HBS-EP buffer until the baseline was restored. A reference cell without antibodies was prepared by a similar procedure. 5 different concentrations of human CD147 antigen (0.375, 0.75, 1.5, 3, and 6 nM) were injected in channels 1 to 5, respectively, at flow rate of 50 μl/min, 3 min. A reference channel was prepared in the same manner without injection of CD147 antigen. The SPR binding responses were collected and analyzed using the ProteOn data manager program.
Two sets of experiments were performed, in the first set of experiments, the human CD147 binding affinity of HAb18 and Metuzumab were compared (data shown in FIG. 3A), in the second set of experiments the human CD147 binding affinity of cHAb18 and Metuzumab were compared (data shown in FIG. 3B).

Test [2] concerns the target T1, human CD147 antigen. Put plainly: SPR, ProteOn XPR36, antibody amine-coupled to GLC chip, human CD147 0.375-6 nM as analyte, 25 C; first set of experiments (FIG. 3A). As for the experimental part:
as §1, with “program. […]” for “program.”

The target of test [3] is T1, human CD147 antigen. The test is described as follows: SPR, ProteOn XPR36, antibody amine-coupled to GLC chip, human CD147 0.375-6 nM as analyte, 25 C; second set of experiments (FIG. 3B). The procedure: as §1, with “program. […]” for “program.”

B1: Metuzumab (antibody, human IgG1, kappa, V domains shown)
VH: EVKLEESGGGLVQPGGSMKLSCVASGFTFSDAWMDWVRQSPEKGLEWVAEIRSKANNHAPYYTESVKGRFTISRDDSKSIIYLQMNNLRAEDTGIYYCTRDSTATHWGQGTLVTVSA
VL: SIVMTQTPTFLVVSAGDRVTITCKASQSVINDVAWYQQKPGQSPKLLIFYASNRNTGVPDRFTGSGYGTDFTFTISTVQAEDLAVYFCQQDYSPPFTFGSGTKLEIKR
modifications: N-linked Mannose-5 oligosaccharide in the Fc region, no fucose or xylose residue detected (site not numbered in the filing)
notes: Human-mouse chimeric IgG1 made in acetyl-glucosamine transferase deficient CHO K1 MAGE1.5 cells; only the glycoform differs; Residues 1-16 are left out on that basis; also called HcHAb18; glycosylation modified chimeric antibody Metuzumab
A word on the Kd: it is the equilibrium constant for the complex coming apart. A higher Kd goes with a looser complex. By koff is commonly meant the first-order rate constant of dissociation. Broadly, the kon is the second-order rate constant of association. For B1, in the test with human CD147 antigen [1], the Kd is 0.362 nM, the off-rate constant (koff) was 0.000417 s⁻¹ and the kon stood at 1.15e+06 M⁻¹ s⁻¹. In the test with human CD147 antigen [2], binding was characterised by a dissociation constant (Kd) of 0.321 nM. The molecule further registered an equilibrium dissociation constant (Kd) with human CD147 antigen [3] of 0.429 nM.

B2: cHAb18 (antibody, human IgG1, kappa, V domains shown)
VH: B1 VH
VL: B1 VL
modifications: N-linked fucosylated oligosaccharides, G0F, G1F and G1F' glycoforms (site not numbered in the filing)
notes: Human-mouse chimeric IgG1 made in CHO K1 cells; also called chimeric antibody cHAb18; cHAb18 mAb
For B2, in the test with human CD147 antigen [3], the Kd stood at 0.475 nM.

B3: HAb18 (antibody, V domains shown)
VH: EVKLEESGGGLVQPGGSMKLSCVASGFTFSDAWMDWVRQSPEKGLEWVAEIRSKANNHAPYYTESVKGRFTISRDDSKSIIYLQMNNLRAEDTGIYYCTRDSTATHWGQGT
VL: B1 VL
notes: Murine monoclonal antibody from hybridoma CGMCC NO; 0426; The variable domains are tied to HAb18 through cHAb18, whose variable domains are 'derived from HAb18'; also called original mouse antibody HAb18; anti-CD147 murine monoclonal antibody HAb18
In the test with human CD147 antigen [1], B3 showed a Kd of 0.321 nM, an off-rate (koff) of 0.000351 s⁻¹ and an association rate constant (kon) of 1.09e+06 M⁻¹ s⁻¹. In addition, the affinity with human CD147 antigen [2], expressed as Kd, was 0.362 nM.

The record behind these values is patent publication US20170101469A1 (FOURTH MILITARY MEDICAL UNIVERSITY, published 2017).
